Experimental data from the DeepSol protein solubility set.

assay: soluble on expression in E. coli; label from the status in PepcDB or PDB records

Row | Sequence | soluble on expression in E. coli
1 | MSIATTPLHTALSLPQIQSFAASDMAAIDTLIHDRLTSDIVLINQIADHIICSGGKRLRPMLTMLAGHAIGPTGPHHHQLAAIIEFIHTATLLHDDVVDGSELRRSRSTANALWGNAPSVLVGDFLYSRSFQLMTELANLEVMQILAETTNRISEGEVLQLLHVHNPDTDETTYLSVIERKTAILFAAAAQLGALASHADTQTQTRMYEYGMQLGYAFQITDDVLDYTANNSQLGKNLGDDLAEGKATLPVIHAMTHSDAATCERLRMIISKGDSDAMPEVLNAIRTTGSLDYSRQRASAYAATAERALDGLPETEAVAALRGLARYAVQRTY | not soluble
2 | MSIAVTTTDPTNTGVSTTSSSSLTGSNAADLQSSFLTLLVAQLKNQDPTNPMENNELTSQLAQISTVSGIEKLNTTLGSISGQIDNSQSLQASNLIGHGVMIPGTTVLAGTGSEEGAVTTTTPFGVELQQAADKVTATITDKNGAVVRTIDIGELTAGVHSFTWDGTLTDGSTATNGSYNVAISASNGGTQLVAQPLQFALVQGVIRGNNGNTLDLGTYGTTILDEVRQII | soluble
3 | MSIEQYFQHLACAPTSLNLIWFTVEMSELAKELPSKEAKTGLIKSIAHILHDEKFEKIRGDEAMLNLFEMLAKCSTKIGGAEVYKQAYGLDLFNYYKEFYFQWAHECGKIKSVSQFRTVFFLARSQLFYHLSPISIEKDFENIFQQYFGKLSMHHCLERTETLNKLFAGCSVEEFASAENVMSFGNSRELSGRSVDVRPNHRVLEVARGTMMSSSEISPNKSDSSVLLNKSPPTNSPIIKFGTYPKIHLQNVSSSMLNARRRQLTATVTTVDSQKGKPTFANETY | not soluble
4 | MSIERSSPIPLYFQLAGELRAAIESGAYPPGSKLPTEGELCQQYDVSRSVVRQALQSLAHDNLIETERGRGAFVLERKVPIALVQQLDPLLESMAKAGFKLTTRVLKQERIKPPAHVAEQIGENDAVFLERLRYADGVVFLVVRNFLPYSRFPDLLQSKELEDVSLYQYLAKRYNAVATTGKRQVELARINEEAIAAQLHVEMNSYVLFNREVTYDQNKQVLEYYESWHHPDRTRLTIDLHRTY | not soluble
5 | MSIFDHYQSRYEAAKDEEMSLQEFLALCKDDKSAYANAAERLLMAIGEPEIIDTAKDPRLSRIFSNRVISRYETFKDFYGMEDAIEQIVSYLKHAAQGLEERKQILYLLGPVGGGKSSLAEKLKSLMEAMPIYVLSANGERSPVNDHPFCLFKATEDGEILKTDYGIEQRYLRSIMSPWAAKRLHEFGGDITKFKVMKVRPSILDQIGIAKTEPGDENNQDISSLVGKVDIRKLEHYSQDDPDAYSYSGALCKANQGLMEFVEMFKAPIKVLHPLLTATQEGNFNGTEGLSAIPFDGMILAHSNESEWQTFRNNKNNEAFLDRVYIVKVPYCLRVSEEVKIYQKLLENSELSQAPCSPSTLETLAQFSILSRLKEPENSS | not soluble
6 | MSIIFAKLLLIILSYTHMKEKARNVYMVAGGVTKFAKASPEMDFRLRVKKAFDYAMNDAGLTLADIDGSVASYFSDHFQRQLMSGIMVQDYLGLVPKPSKRIEGGGATGGLAFQAGYEEIASGRMDTVAVYGFETMSHVNTWKGNEFIALASDTNFDYPIGGFYTGYYAMMAVRHMYEFGTTVEQLAKVSVKNHGNALHNPYAQSPMKLTVEDVRNAPMVSYPLTRLDVCAMSDGAAVAILASEDKAFEITDHPVLIKGIGTGTDSMRLADRPFGDVPLLPNEKPSDYKDLKYPGVHSFRAGRMAAKEAYEMAGITDPLNELDLIELHDAYTSSEIQTYEDLGLCKYGEGGQFIDEGKPELHGKIPVNPSGGLLAAGHPVGATGIMQAVFMFWQLQHTIKKHFHDDYLQVPNAKRGLIHSHAGTGTYVTVTIMEAAK | not soluble
7 | MSILAEPKRKQKISIDPQNLTWKNDDQKLSKKLMEKMGWSEGDGLGRNRQGNADSVKLKANTSGRGLGADKMADYDSTWISHHDDFADLLAALNKNKEQEPEQTEEEKNAAAEKISIELKSKSIRRRIHYQKFTRAKDTSNYSDSHKKGILGYGRLKSDNAEEKIEEKTENSSVKSDSSDSQADSQEKKEGNNTVSTLSVGDYFAAKMAALKAKREAAAANQTEVKMEIKTEVEEEESDEEKARRKAEKKERKRLRREQRDKEETLETVETILEVKQEVKEEIIDEEFDEAERKRLKKEKKRLKRLREQQQPENEGAEGGEADEEEIPRKRKKHTEDEH | not soluble
8 | MSILDLTKISKDSTKLQNFVKFERVKTGGLDVYMSEYSWNTKEAGTMSICDVSENTSLDYRSNHQQLLKSWISSTEKIAQLFPTTLRTFQVTPPMIAAILDLETAIPKTCDVLIIQNYVPAEMDRYQESVDQFMEKCHIREGVVLHHEVYTNSPKMFQLDYLSVTHSDWMVPSDLEEMENKIVYLDKSDFYDSDMNQFLRELKSGSSHSRLQILSIQGNSWQNYWDPSDVLEGLNAELWNQTERNQHYFLNAEHRKNFKKIADHFYPDQEDGFGAELEHGVDLSEAFDFLKNDGTRVSVRFDELILQVFVWPNEKPSRKRKAQEQGSIAKRFC | not soluble
9 | MSIQLNGINCFYGAHQALFDITLDCPEGETLVLLGPSGAGKSSLLRVLNLLEMPRSGTLTIAGNHFDFTKTPSDKAIRELRQNVGMVFQQYNLWPHLTVVQNLIEAPCRVLGLTKDQALARAEKLLERLRLKPYSDRYPLHLSGGQQQRVAIARALMMEPQVLLFDEPTAALDPEITAQIVSIIHELAETNITQVIVTHEVEVARKTASRVIYMENGHIVEHGDAGCFAHPQTEAFKNYLSH | not soluble
10 | MSIRSWPAAERPRERLLELGAASLSDAELLAIFLRTGVAGKSAVDLARHLLNQFDGLRSLLDADQPAFTAQLGLGPAKFAQLQAVMEMARRHMAESLRRDSALENPAQVRNYLKAQLRHEPHEVFACLFLDNKHRVMTFEILFRGTINASYVHPRQVVKRALAHNAASLILCHNHPSGITTPSRSDIDLTKRLKEALKLVDVHVLDHVIVGDGEPLSMVEKGLM | not soluble
11 | MSISKDSRIAIIGAGPAGLAAGMYLEQAGFHDYTILERTDHVGGKCHSPNYHGRRYEMGAIMGVPSYDTIQEIMDRTGDKVDGPKLRREFLHEDGEIYVPEKDPVRGPQVMAAVQKLGQLLATKYQGYDANGHYNKVHEDLMLPFDEFLALNGCEAARDLWINPFTAFGYGHFDNVPAAYVLKYLDFVTMMSFAKGDLWTWADGTQAMFEHLNATLEHPAERNVDITRITREDGKVHIHTTDWDRESDVLVLTVPLEKFLDYSDADDDEREYFSKIIHQQYMVDACLVKEYPTISGYVPDNMRPERLGHVMVYYHRWADDPHQIITTYLLRNHPDYADKTQEECRQMVLDDMETFGHPVEKIIEEQTWYYFPHVSSEDYKAGWYEKVEGMQGRRNTFYAGEIMSFGNFDEVCHYSKDLVTRFFV | soluble
12 | MSIYLTAMKNYLEQQNSLNSSKPKALILVAGATGGAQEGFQALERLRESYEIIVVASQAALDLYGEENLKSLTGTAKIYQGKEFKIYDFLKVVTIVFLPVVSSNLVGKLAHGIYDEPLASLIFHAKLAGKPVIGVVDGALPDGDGFKSRGFTNPPPGLVKLINENIEKLRAQEIYLYKGKTILEKLSPYLGPQTAETSVVSSKTGVTLNKRVITREDLLELANQTITVSQKTIITDLAREYAVQNNIKINFAE | not soluble
13 | MSKDTKQEDNAPTPVTTTPMALNPKTVEKTMFVNKEVLPKMKKIDPEEPGHLPLNEKFMKRWLIEGLIGKGGYGEIYLALDVVRGEEVAIKVEPKKRRGKLAKRMILEQHVLAKMQGKPHVPMIYGSGHAEKYNFIIMQILSINVGDIKKSSPNKKLSQCSVGRIIHQVIAALQDLHETGYVHRDVKPANMCFGIFPHSRHTLILLDFGLVRRYKMESGEWREPRLRAGFRGTTRYVSIRVHRRCEQSPYDDLVSVMYTAYELLAGELPWKHLEKSEEVVQLKEVMTENGINPELFQGDKSVLIDFFKQVSEMDPMKEPCYEKLIECIKVLYAPKVLTDPYEWEESSKGQDEVSEENTNSK | soluble
14 | MSKENIVTRENTAVSENAVSEPTVNNDVGASATNSVTHPAFTLNVRPDNIGIITIDVVGDKVNTLKAEFADQIATILQQAHALPKLQGLVIVSGKPDSFIAGADITMIAACRTAHDARVLAQKGQSILAQIAAFPVPVVAAIHGACLGGGLELALACHSRICSLDDKTVLGLPEVQLGLLPGSGGTQRLPRLVGVSKALDMILTGKQIRPRQALKMGLVDDVVPRDILLDVAIQRAKAGWLNRRALPWQERLLSGPLGKALLFRIVRKKTLAKTRGHYPAAERIIDVVRKGLDQGGPSGYEAEARAFGELAMSPQSAALRSLFFATTSLKKETGSAATARAIHRVGVLGGGLMGGGIANVTATRAGLPVRIKDINPQGINQALKYTWDALGKRVRSKRMRPTEQQRQMMLISGSTDYRGFERVDIVVEAVFEDLSLKQQMVADIERFGAAHTIFASNTSSLPISQIAALAQRPEQVIGLHYFSPVDKMPLVEVIPHEKTSEETIATTVALARKQGKTAIVVADRAGFYVNRILAPYINEAARCLLDGEPIESVDNALVDFGFPVGPMMLLDEVGIDVATKIMPILVEQLGPRFAAPPSFDVILKDGRKGRKNGRGFYLYSNPTKNSSPTKNGNSPAKRNSFKWRKNKVKPVDASIYTLLGVTPKAHLGAGVITQRCTMLMLNEAVRCLDESIIRNPRDGDIGAVFGIGFPPFLGGPFRYLDSLGADKVVQALRLLVQQYGERFEPCQRLVTMAEQQQQFYPVDANIDEVTDVAS | not soluble
15 | MSKHVNWSGVFPAVTTQFNADFSVNLEETHTVISNLVRDGVSGLVVCGSVGENTSLTIEEKMAVTEVAKDASGGRVPVICGIAEFTSAGAAKVAKAVERVGVDGIMVMPALVYSSKPHETAEHFRSVASGTDLPVMVYNNPPIYRNDVTPDILVSLADCENIVCFKDSSGDTRRFIDVRNQVGERFILFAGLDDVVLESVAVGAQGWISGMSNVFPKEGETIFRLARAGRFAEAMPIYEWLMPILHLDARPDLVQCIKLCEQLAGRGSALTRPPRLALRGADREHVERIMAKALASRPALPDVGL | not soluble
16 | MSKIIGSDRVKRGMAEMQKGGVIMDVVNAEQARIAEEAGAVAVMALERVPSDIRAAGGVARMANPKIVEEVMNAVSIPVMAKARIGHITEARVLEAMGVDYIDESEVLTPADEEYHLRKDQFTVPFVCGCRNLGEAARRIGEGAAMLRTKGEPGTGNIVEAVRHMRQVNSEVSRLTVMNDDEIMTFAKDIGAPYEILKQIKDNGRLPVVNFAAGGVATPQDAALMMELGADGVFVGSGIFKSEDPEKFAKAIVQATTHYQDYELIGRLASELGTAMKGLDINQLSLEERMQERGWMAGDPLEHHHHHH | not soluble
17 | MSKIKIAIIGNGMVGHRFIEDLLDKADKDQFDITVFCEEPRIAYDRVHLSSYFSHHTAEELSLVREGFYEKQGVKVLVGERAITINRAEKVIHSNSGRSLYYDKLVMATGSYPWIPPIKGSEGQDCFVYRTIEDLNAIEACTRRSKRGAVIGGGLLGLEAAGALKSLGVETHVIEFAPVLMAEQLDPMGGDQLRQKIERMGVRVHTGKNTQEIVHSGQNSRKTMLFADGTQLEVDFIVFSTGIRPQDKLANQCGLATARRGGIAINDYCQTSDPDVYAIGECASWQERTFGLVAPGYKMAQVAADHLLGRENAFLGADMSAKLKLLGVDVGGIGDAHGRTEGARSYVYLDESKEIYKRLVVSADNKTLLGAVLVGDTTDYGNLLQLALNNITLPENPDSLILPAHAGNKPTIGVDSLPDSAQICSCFDVTKGDIIRAIGQGCQTVAALKSATKAGTGCGGCIPLVTQVLNAELSKQGIEVNNHLCEHFAYSRQELYHLIRVEGIKTFTELREKYGKGYGCEVCKPTVGSLLASCWNEYVLEPQHTPLQDTNDNFLGNIQKDGTYSIIPRSPGGEITPDGLLVVGQIAKEYNLYTKLTGSQRIGMFGAQKDDLPAIWARLIDAGFETGHAYAKALRMAKTCVGSTWCRFGVGDSVGFGVALEHRYKGIRAPHKIKFGISGCTRECAEAQGKDVGIIATENGWNLYVCGNGGMKPRHADLLAADLDEETLMRYLDRFMMFYIRTADKLQRTSVWLESLEGGIRYLQLVILEDKLGINDQLEAEIARLRDKVACEWKATVENPAAQVRFAHFINSSLRDPNVQVVREREQHRPARPDERIPVRVLELEDNA | not soluble
